Experimental data taken from US20140141003A1 (Bayer, published 2014).
Changes are numbered by the printed parent chain. Read-outs that look alike come from different tables or passages of the source. Each block holds one binder with its values, some of them ahead of it.

Legend:
[1] = target: murine PRLR expressed on cells (mouse) (UniProt Q08501); assay: flow cytometry on BaF3-mouse PRLR cells, IgG1 format
[2] = target: T1, rhesus monkey PRLR expressed on cells (rhesus monkey, UniProt F7HIU9 25-619); assay: cell-based or functional assay
T1 sequence: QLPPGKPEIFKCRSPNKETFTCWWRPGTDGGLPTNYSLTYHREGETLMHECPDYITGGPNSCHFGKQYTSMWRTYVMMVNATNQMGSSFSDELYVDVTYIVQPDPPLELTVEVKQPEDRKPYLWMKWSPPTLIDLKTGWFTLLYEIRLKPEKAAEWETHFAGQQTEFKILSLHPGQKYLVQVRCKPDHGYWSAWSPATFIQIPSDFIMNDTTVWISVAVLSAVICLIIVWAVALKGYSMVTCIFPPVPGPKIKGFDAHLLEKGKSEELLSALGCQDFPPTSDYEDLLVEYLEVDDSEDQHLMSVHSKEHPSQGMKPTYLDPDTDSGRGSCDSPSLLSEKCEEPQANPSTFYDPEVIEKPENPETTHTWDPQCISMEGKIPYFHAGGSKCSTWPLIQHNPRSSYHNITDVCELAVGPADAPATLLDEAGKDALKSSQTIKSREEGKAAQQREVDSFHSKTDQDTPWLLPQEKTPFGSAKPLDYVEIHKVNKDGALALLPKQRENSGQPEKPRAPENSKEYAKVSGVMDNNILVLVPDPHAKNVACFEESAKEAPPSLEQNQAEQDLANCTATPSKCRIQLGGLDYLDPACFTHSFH

[3] = target: T1, rhesus monkey PRLR expressed on cells; assay: flow cytometry on BaF3-rhesus PRLR cells, IgG1 format
[4] = target: human PRLR expressed on cells (human) (UniProt P16471); assay: cell-based or functional assay
[5] = target: murine PRLR expressed on cells (mouse) (UniProt Q08501); assay: cell-based or functional assay
[6] = target: human PRLR expressed on cells (human) (UniProt P16471); assay: flow cytometry on HEK293-human PRLR cells, IgG1 format
[7] = target: murine PRLR expressed on cells (mouse) (UniProt Q08501); assay: flow cytometry on HEK293-murine PRLR cells, IgG1 format
[8] = target: human PRLR expressed on cells (human) (UniProt P16471); assay: flow cytometry on human T47D breast cancer cells (natural PRLR), IgG1 format
[9] = target: human PRLR expressed on cells (human) (UniProt P16471); assay: flow cytometry on BaF3-human PRLR cells, IgG1 format
[10] = target: human PRLR expressed on cells (human) (UniProt P16471); assay: flow cytometry on HEK293 cells expressing human PRLR, Example 9
[11] = target: T1, rhesus monkey PRLR expressed on cells; assay: flow cytometry on Ba/F cells expressing rhesus monkey PRLR, Example 9
Method: The cells were harvested, centrifuged and resuspended at approximately 2×10⁶ cells/ml in 1×PBS containing 3% FBS and 0.05% sodium azide (FACS buffer). […] For secondary antibody and autofluorescence controls, 50 μl FACS buffer was added to appropriate wells. 50 μl of cell suspension was added to each sample well. Samples were incubated at 4° C. for one hour, washed twice with cold FRCS buffer and resuspended in FACS buffer containing PE-conjugated goat anti-human IgG at a 1:100 dilution. Following a 30 min incubation at 4° C., cells were washed twice with cold FACS buffer, resuspended in FACS buffer containing 1 mg/ml propidium iodide (Invitrogen, San Diego, Calif.) and analyzed by flow cytometry.

[12] = target: T2, extracellular domain of human PRLR (soluble, monomeric) (human, UniProt P16471 25-234); assay: SPR (Biacore T100), antibody captured via anti-human IgG Fc, monovalent ECD as analyte, Example 13
T2 construct: also called Human ECD PRLR; ECD-PRLR
T2 sequence: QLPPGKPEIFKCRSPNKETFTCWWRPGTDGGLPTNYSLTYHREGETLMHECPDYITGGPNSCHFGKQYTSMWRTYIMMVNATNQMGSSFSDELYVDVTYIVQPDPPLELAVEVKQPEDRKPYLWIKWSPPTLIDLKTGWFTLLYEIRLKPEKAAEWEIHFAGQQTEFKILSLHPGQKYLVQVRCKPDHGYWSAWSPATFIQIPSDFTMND
Method: (§1) Antibodies were immobilized onto a CM5 sensor chip through an indirect capturing reagent, anti-human IgG Fc. […] Approximately 5000 RU monoclonal mouse anti-human IgG (Fc) antibody were immobilized per cell. Each test antibody was injected at a concentration of 5 μg/ml at 10 μl/min for 10 sec to reach a capturing level of approximately 200 to 600 RU. […] Sensograms were generated after in-line reference cell correction followed by buffer sample subtraction. The dissociation equilibrium constant (KD) was calculated based on the ratio of association (kon) and dissociation rated (koff=kd) constants, obtained by fitting sensograms with a first order 1:1 binding model using BiaEvaluation Software (see Table 7).

[13] = target: T3, extracellular domain of murine PRLR (soluble, monomeric) (mouse, UniProt Q08501 20-229); assay: as above
T3 construct: Expressed in HEK293 cells; also called Murine ECD PRLR; Mouse PRLR
T3 sequence: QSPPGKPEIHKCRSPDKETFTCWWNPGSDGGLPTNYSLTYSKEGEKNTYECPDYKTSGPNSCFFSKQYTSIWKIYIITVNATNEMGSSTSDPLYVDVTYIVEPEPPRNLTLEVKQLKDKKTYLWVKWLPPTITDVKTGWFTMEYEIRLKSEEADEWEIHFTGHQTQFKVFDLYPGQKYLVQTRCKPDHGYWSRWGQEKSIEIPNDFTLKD
Method: as §1

[14] = target: T4, extracellular domain of rhesus and cynomolgus monkey PRLR (Fc-His removed by Factor Xa digestion) (rhesus and cynomolgus monkey, UniProt P16471 25-234 (human entry)); assay: as above
T4 construct: the fusion part was removed by Factor Xa before SPR; also called Rhesus/Cynomolgus PRLR; Rhesus and cynomolgus monkey ECD PRLR
T4 chain: T2 sequence with I76V, A110T, I125M, I158T, T207I
Method: as §1

[15] = target: T2, extracellular domain of human PRLR …; assay: SPR (Biacore T100), antibody captured via anti-human IgG Fc, monovalent ECD as analyte, Example 10
Method: (§2) Antibodies were immobilized onto a CM5 sensor chip through an indirect capturing reagent, anti-human IgG Fc. […] Approximately 5000 RU monoclonal mouse anti-human IgG (Fc) antibody were immobilized per cell. […] Sensograms were generated after in-line reference cell correction followed by buffer sample subtraction. The dissociation equilibrium constant (KD) was calculated based on the ratio of association (kon) and dissociation rated (koff=kd) constants, obtained by fitting sensograms with a first order 1:1 binding model using BiaEvaluation Software.

[16] = target: T3, extracellular domain of murine PRLR …; assay: as above
Method: as §2

[17] = target: T4, extracellular domain of rhesus and …; assay: as above
Method: as §2

[18] = target: T2, extracellular domain of human PRLR …; assay: SPR: ECD-PRLR captured by immobilized Mat3 or HE06642, human PRL passed over
[19] = target: human PRLR expressed on cells (human) (UniProt P16471); assay: cell-based or functional assay; remark: listed apart in the source
[20] = target: murine PRLR expressed on cells (mouse) (UniProt Q08501); assay: cell-based or functional assay; remark: listed apart in the source

EC50 [1]: 0.2 nM
IC50, inhibition of prolactin-induced proliferation of BaF3 cells stably transfected with the rhesus prolactin receptor [2]: 4.6 nM
EC50 [3]: 1.2 nM
% inhibition of prolactin-induced proliferation at 1 µg/ml (=6.7 nM) [4]: 100%
IC50, inhibition of LHRE luciferase reporter gene activity in HEK293 cells stably transfected with human PRLR [4]: 0.5 nM
IC50, inhibition of prolactin-induced proliferation of BaF3 cells stably transfected with human prolactin receptor [4]: 0.7 nM
IC50, inhibition of LHRE luciferase reporter gene activity in HEK293 cells stably transfected with murine PRLR [5]: 1.3 nM
IC50, inhibition of prolactin-induced proliferation of BaF3 cells stably transfected with the murine prolactin receptor [5]: 3 nM
EC50 [6]: 0.8 nM
EC50 [7]: 0.1 nM
EC50 [8]: 0.4 nM
EC50 [9]: 0.1 nM
B1: antibody Mat3 in IgG1 format (antibody, V domains shown)
VH: EVQLLESGGGLVQPGGSLRLSCAASGFTFSSYWMHWVRQAPGKGLEWVSDIARLSSYTNYADSVKGRFTISRDNSKNTLYLQMNSLRAEDTAVYYCARGLDARRMDYWGQGTLVTVSS
VL: QSVLTQPPSASGTPGQRVTISCTGSSSNIGAGYVVHWYQQLPGTAPKLLIYRNNQRPSGVPDRFSGSKSGTSASLAISGLRSEDEADYYCAAWDDSLNGWLFGGGTKLTVLG
notes: also called Mat3 IgG1

EC50 [10]: 0.53 nM
EC50 [11]: 2.94 nM
B2: antibody Mat3 as human IgG2 molecule (antibody, V domains shown)
VH: B1 VH
VL: B1 VL
notes: also called IgG2 Mat3

Kd [12]: 1.3 nM
koff [12]: 0.000414 s⁻¹
Kd [13]: 0.4 nM
koff [13]: 0.000164 s⁻¹
Kd [14]: 9.6 nM
koff [14]: 0.00102 s⁻¹
Kd [15]: 0.9 nM
koff [15]: 0.00044 s⁻¹
Kd [16]: 0.4 nM
koff [16]: 0.00021 s⁻¹
Kd [17]: 7.1 nM
koff [17]: 0.0011 s⁻¹
B3: antibody Mat3 as human IgG molecule (isotype not stated) (antibody, V domains shown)
VH: B1 VH
VL: B1 VL
notes: Lambda light chain; also called neutralizing prolactin receptor antibody Mat3

binding result [18]: binds
B4: human prolactin (ligand, UniProt P01236 29-227, looked up)
chain: LPICPGGAARCQVTLRDLFDRAVVLSHYIHNLSSEMFSEFDKRYTHGRGFITKAINSCHTSSLATPEDKEQAQQMNQKDFLSLIVSILRSWNEPLYHLVTEVRGMQEAPEAILSKAVEIEEQTKRLLEGMELIVSQVHPETKENEIYPVWSGLPSLQMADEESRLSAYYNLLHCLRRDSHKIDNYLKLLKCRIIHNNNC
notes: also called PRL; Human PRL

Second part, the binder before the results:

B5: antibody HE06642 as IgG1 molecule (antibody, V domains shown)
VH: EVQLVESGGGLVQPGGSLRLSCAVSGFTFSSYGMSWVRQAPGKGLEWVATVSSGGTYTYYPDSVKGRFTISRDNSKNTLYLQMNSLRAEDTAVYYCARHRGNYYATYYYAMDYWGQGTLVTVSS
VL: DIVLTQSPDSLAVSLGERATINCKASKSVSTSGYTYMHWYQQKPGQPPKLLIYLASNRESGVPDRFSGSGSGTDFTLTISPVQAEDVATYYCQHSGELPPSFGQGTKLEIKR
IC50, inhibition of prolactin-induced proliferation of BaF3 cells stably transfected with the rhesus prolactin receptor [2]: 206 nM
EC50 [3]: 3.2 nM
EC50 [6]: 1.6 nM
EC50 [8]: 0.8 nM
IC50, inhibition of LHRE luciferase reporter gene activity in HEK293 cells stably transfected with human PRLR [19]: 4.6 nM
IC50, inhibition of prolactin-induced proliferation of BaF3 cells stably transfected with human prolactin receptor [19]: 4.2 nM
IC50, inhibition of LHRE luciferase reporter gene activity in HEK293 cells stably transfected with murine PRLR [20]: > 1330 nM
EC50 [9]: 0.2 nM

B6: antibody HE06642 (isotype not stated) (antibody, V domains shown)
VH: B5 VH
VL: B5 VL
notes: Kappa light chain; also called he06.642-2 of WO 2008/022295
Kd [12]: 0.8 nM
koff [12]: 0.000533 s⁻¹
Kd [13]: 15 nM
koff [13]: 0.0091 s⁻¹
Kd [14]: 17 nM
koff [14]: 0.00579 s⁻¹
